Experimental data taken from IntAct's records for PubMed 31515488.

B1: Coiled-coil domain-containing protein 172 (Homo sapiens), P0C7W6 (parent)
chain: MSLESLFQHIIFTEHQAEESRRLMREVRSEITRCREKIKKATEELNEEKIKLESKVQQFFEKSFFLQLLKAHENALEKQYSEITNHRNMLLQTFEAIKKQMIEEEDKFIKEITDFNNDYEITKKRELLMKENVKIEISDLENQANMLKSEMKSMEHDSSQLNELQKQKSELIQELFTLQRKLKVFEDEENESICTTKYLEAEKIKISEKPQNDTECLRLKKELELYKEDDMESVYEALQTEIEFLELTLAQKDLQESK
B2: Germ cell-less protein-like 1 (Homo sapiens), Q96IK5 (parent)
chain: MGSLSSRVLRQPRPALAQQAQGARAGGSARRPDTGDDAAGHGFCYCAGSHKRKRSSGSFCYCHPDSETDEDEEEGDEQQRLLNTPRRKKLKSTSKYIYQTLFLNGENSDIKICALGEEWSLHKIYLCQSGYFSSMFSGSWKESSMNIIELEIPDQNIDVEALQVAFGSLYRDDVLIKPSRVVAILAAACLLQLDGLIQQCGETMKETVNVKTVCGYYTSAGTYGLDSVKKKCLEWLLNNLMTHQNVELFKELSINVMKQLIGSSNLFVMQVEMDIYTALKKWMFLQLVPSWNGSLKQLLTETDVWFSKQRKDFEGMAFLETEQGKPFVSVFRHLRLQYIISDLASARIIEQDAVVPSEWLSSVYKQQWFAMLRAEQDSEVGPQEINKEELEGNSMRCGRKLAKDGEYCWRWTGFNFGFDLLVTYTNRYIIFKRNTLNQPCSGSVSLQPRRSIAFRLRLASFDSSGKLICSRTTGYQILTLEKDQEQVVMNLDSRLLIFPLYICCNFLYISPEKKN
partner: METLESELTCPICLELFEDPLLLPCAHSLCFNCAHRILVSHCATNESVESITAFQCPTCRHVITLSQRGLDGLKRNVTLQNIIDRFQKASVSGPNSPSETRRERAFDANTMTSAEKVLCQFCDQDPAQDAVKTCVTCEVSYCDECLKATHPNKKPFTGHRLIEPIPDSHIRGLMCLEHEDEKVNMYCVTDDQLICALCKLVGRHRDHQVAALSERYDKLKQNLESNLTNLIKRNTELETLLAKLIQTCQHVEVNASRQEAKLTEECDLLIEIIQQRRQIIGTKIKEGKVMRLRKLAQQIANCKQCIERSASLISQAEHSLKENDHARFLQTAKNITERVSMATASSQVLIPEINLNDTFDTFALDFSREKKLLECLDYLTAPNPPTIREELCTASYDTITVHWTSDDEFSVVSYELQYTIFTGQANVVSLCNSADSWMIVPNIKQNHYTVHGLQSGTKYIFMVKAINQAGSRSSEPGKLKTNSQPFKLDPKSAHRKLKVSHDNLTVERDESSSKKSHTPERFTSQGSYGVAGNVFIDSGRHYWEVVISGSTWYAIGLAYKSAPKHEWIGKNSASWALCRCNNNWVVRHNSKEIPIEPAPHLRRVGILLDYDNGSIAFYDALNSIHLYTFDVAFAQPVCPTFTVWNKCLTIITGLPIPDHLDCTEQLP
B3: Protein transport protein (Homo sapiens), Q15437 (parent)
chain: MATYLEFIQQNEERDGVRFSWNVWPSSRLEATRMVVPLACLLTPLKERPDLPPVQYEPVLCSRPTCKAVLNPLCQVDYRAKLWACNFCFQRNQFPPAYGGISEVNQPAELMPQFSTIEYVIQRGAQSPLIFLYVVDTCLEEDDLQALKESLQMSLSLLPPDALVGLITFGRMVQVHELSCEGISKSYVFRGTKDLTAKQIQDMLGLTKPAMPMQQARPAQPQEHPFASSRFLQPVHKIDMNLTDLLGELQRDPWPVTQGKRPLRSTGVALSIAVGLLEGTFPNTGARIMLFTGGPPTQGPGMVVGDELKIPIRSWHDIEKDNARFMKKATKHYEMLANRTAANGHCIDIYACALDQTGLLEMKCCANLTGGYMVMGDSFNTSLFKQTFQRIFTKDFNGDFRMAFGATLDVKTSRELKIAGAIGPCVSLNVKGPCVSENELGVGGTSQWKICGLDPTSTLGIYFEVVNQHNTPIPQGGRGAIQFVTHYQHSSTQRRIRVTTIARNWADVQSQLRHIEAAFDQEAAAVLMARLGVFRAESEEGPDVLRWLDRQLIRLCQKFGQYNKEDPTSFRLSDSFSLYPQFMFHLRRSPFLQVFNNSPDESSYYRHHFARQDLTQSLIMIQPILYSYSFHGPPEPVLLDSSSILADRILLMDTFFQIVIYLGETIAQWRKAGYQDMPEYENFKHLLQAPLDDAQEILQARFPMPRYINTEHGGSQARFLLSKVNPSQTHNNLYAWGQETGAPILTDDVSLQVFMDHLKKLAVSSAC
partner: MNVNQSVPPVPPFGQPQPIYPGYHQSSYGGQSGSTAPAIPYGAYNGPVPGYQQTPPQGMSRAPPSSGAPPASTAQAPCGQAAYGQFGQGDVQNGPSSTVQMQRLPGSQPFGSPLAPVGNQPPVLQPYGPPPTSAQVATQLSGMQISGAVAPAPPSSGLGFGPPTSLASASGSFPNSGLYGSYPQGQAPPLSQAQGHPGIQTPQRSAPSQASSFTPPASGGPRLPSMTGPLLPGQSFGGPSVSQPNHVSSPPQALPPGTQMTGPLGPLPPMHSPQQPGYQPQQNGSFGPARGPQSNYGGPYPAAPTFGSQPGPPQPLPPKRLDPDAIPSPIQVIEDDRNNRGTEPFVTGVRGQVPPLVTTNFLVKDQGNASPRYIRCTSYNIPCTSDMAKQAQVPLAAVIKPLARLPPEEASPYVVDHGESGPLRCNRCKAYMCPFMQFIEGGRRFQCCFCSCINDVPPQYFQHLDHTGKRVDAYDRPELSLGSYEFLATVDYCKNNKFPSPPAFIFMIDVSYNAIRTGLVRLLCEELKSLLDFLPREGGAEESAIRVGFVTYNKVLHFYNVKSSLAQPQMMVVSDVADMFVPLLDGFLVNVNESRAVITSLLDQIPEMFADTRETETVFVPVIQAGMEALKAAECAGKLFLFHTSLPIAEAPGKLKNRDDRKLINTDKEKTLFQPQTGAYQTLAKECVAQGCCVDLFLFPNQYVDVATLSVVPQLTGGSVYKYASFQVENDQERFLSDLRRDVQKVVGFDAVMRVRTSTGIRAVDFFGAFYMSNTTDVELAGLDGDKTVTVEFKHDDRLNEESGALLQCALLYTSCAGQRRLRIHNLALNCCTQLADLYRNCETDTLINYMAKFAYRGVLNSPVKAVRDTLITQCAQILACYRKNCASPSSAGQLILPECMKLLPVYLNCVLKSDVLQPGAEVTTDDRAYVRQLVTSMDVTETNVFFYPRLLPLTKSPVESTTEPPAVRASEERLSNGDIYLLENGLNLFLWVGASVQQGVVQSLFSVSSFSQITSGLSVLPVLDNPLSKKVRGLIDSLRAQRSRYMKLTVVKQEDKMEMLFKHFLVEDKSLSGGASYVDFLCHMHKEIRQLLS

Variants of: B1
Conditions: with fa13c_human FAM13C

Variant	effect of a mutation on the interaction
F60L	disrupting interaction strength
I10V	with no effect

Variants of: B1
Conditions: with dctn2_human DCTN2, Q13561
Chain of dctn2_human DCTN2, Q13561 (Q13561 whole entry): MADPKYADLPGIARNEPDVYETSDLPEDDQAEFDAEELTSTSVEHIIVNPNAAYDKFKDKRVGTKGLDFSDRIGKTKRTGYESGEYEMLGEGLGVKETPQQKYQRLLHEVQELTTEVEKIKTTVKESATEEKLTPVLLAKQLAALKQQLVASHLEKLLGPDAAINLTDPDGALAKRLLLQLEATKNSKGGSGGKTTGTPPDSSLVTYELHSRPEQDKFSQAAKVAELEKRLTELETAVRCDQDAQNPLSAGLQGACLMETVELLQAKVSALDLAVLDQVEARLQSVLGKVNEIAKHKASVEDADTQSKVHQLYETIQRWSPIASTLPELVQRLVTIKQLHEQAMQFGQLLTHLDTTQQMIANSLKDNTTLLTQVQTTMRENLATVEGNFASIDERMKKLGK

Variant	effect of a mutation on the interaction
F60L	disrupting interaction strength
I10V	with no effect

Variants of: B1
Conditions: with smce1_human SMARCE1, Q969G3
Chain of smce1_human SMARCE1, Q969G3 (Q969G3 whole entry): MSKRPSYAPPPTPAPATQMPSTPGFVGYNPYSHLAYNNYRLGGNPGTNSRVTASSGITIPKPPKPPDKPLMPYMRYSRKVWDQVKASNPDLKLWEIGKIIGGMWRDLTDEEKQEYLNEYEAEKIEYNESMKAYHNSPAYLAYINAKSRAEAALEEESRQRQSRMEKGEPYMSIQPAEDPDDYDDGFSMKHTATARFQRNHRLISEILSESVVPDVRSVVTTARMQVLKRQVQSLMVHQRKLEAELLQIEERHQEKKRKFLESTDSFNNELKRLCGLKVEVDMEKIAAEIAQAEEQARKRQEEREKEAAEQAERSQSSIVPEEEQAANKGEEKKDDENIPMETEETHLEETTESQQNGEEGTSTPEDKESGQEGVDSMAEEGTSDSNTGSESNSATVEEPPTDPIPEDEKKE

Variant	effect of a mutation on the interaction
F60L	disrupting interaction strength
I10V	with no effect

Variants of: B1
Conditions: with mesh1_human HDDC3, Q8N4P3
Chain of mesh1_human HDDC3, Q8N4P3 (Q8N4P3 whole entry): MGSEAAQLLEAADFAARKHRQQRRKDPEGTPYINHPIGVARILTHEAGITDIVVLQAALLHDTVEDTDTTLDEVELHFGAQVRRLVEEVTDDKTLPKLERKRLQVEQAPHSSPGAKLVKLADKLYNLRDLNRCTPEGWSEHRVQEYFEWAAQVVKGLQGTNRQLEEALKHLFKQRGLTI

Variant	effect of a mutation on the interaction
I10V	with no effect

Variants of: B2
Conditions: with tri18_human MID1, O15344

Variant	effect of a mutation on the interaction
E77K	with no effect
I147V	with no effect
K123R	with no effect
Y61S	with no effect

Variants of: B3
Conditions: with sc24c_human SEC24C

Variant	effect of a mutation on the interaction
V426I	with no effect
